Common to all, as to experiment: cell-based or functional assay
Experiment [1] addresses T1, B-cat-Halo (UniProt P35222 1-781, HaloTag NanoBRET 618 Ligand bound to the HaloTag in the assay).
T1 sequence (looked up): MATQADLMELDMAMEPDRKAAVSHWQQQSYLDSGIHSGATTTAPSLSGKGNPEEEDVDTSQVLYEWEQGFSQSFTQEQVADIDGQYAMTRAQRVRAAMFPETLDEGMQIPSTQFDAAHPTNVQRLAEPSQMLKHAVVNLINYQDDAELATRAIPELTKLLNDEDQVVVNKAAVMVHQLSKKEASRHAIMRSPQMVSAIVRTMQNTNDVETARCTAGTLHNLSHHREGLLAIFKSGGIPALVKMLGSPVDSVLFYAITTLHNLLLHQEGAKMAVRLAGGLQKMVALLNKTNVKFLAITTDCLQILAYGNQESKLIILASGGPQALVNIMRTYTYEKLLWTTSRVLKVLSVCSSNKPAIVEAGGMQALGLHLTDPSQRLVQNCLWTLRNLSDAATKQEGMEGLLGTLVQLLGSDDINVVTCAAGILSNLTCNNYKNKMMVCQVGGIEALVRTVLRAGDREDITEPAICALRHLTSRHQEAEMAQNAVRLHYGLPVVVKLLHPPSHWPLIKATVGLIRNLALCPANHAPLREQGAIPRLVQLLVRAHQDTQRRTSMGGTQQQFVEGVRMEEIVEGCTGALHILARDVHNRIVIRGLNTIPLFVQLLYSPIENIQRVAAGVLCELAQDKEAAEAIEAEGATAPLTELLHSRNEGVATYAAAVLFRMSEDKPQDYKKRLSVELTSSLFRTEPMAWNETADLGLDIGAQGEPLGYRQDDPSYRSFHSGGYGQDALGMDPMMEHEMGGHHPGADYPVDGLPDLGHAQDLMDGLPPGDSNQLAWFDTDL

For experiment [2], the target named is T2, B-cat-Halo (beta-catenin HaloTag fusion expressed in HEK293 cells) (UniProt P35222 1-781).
T2 sequence (looked up): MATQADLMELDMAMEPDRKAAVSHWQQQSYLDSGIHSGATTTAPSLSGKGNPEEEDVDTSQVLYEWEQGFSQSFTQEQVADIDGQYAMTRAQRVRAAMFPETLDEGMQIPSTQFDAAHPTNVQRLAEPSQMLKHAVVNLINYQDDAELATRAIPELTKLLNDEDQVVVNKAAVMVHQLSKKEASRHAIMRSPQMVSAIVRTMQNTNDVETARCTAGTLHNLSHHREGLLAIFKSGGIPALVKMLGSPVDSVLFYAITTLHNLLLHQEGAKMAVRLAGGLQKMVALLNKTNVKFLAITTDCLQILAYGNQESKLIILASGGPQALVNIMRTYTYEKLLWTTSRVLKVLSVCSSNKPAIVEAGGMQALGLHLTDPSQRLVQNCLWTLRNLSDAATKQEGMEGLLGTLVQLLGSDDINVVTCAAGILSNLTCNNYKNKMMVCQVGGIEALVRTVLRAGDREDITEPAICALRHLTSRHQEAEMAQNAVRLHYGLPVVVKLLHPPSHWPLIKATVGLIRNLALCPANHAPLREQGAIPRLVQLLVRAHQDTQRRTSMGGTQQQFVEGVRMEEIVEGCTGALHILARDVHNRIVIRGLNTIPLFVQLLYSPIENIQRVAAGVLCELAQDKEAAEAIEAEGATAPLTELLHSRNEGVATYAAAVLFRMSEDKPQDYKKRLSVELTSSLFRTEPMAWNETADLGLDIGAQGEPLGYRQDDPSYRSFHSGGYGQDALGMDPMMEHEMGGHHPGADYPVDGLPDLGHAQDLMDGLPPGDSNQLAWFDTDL

In experiment [3] the target is T3, B-cat-Halo (UniProt P35222 1-781).
T3 sequence (looked up): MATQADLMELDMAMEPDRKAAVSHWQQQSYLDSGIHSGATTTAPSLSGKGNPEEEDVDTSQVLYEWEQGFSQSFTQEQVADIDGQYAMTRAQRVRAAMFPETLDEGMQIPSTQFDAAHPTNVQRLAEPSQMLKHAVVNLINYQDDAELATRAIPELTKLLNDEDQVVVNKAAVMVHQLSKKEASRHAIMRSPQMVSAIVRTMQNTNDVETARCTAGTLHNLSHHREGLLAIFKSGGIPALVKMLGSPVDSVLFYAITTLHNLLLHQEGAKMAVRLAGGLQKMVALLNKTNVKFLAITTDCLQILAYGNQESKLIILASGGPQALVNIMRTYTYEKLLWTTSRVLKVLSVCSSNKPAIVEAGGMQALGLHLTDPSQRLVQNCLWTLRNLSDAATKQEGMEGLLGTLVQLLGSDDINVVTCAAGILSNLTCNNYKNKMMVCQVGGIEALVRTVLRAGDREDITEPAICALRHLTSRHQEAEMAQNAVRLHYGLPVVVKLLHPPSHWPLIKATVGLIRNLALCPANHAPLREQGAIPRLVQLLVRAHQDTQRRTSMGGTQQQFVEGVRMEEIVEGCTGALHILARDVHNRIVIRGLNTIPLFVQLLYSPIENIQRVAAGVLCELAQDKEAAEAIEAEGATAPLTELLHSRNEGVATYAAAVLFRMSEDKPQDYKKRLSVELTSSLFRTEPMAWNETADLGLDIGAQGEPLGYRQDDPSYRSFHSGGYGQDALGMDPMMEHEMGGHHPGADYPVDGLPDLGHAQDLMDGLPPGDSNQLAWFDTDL

Results on 14 molecules are retold here after patent US20240116985A1 (published 2024).

Starred links: 1 amine or outer side, 2 acyl side, 3 side chain; linkers in the order of their positions; H or OH if unused. Positions of bridges follow the written chain, without caps; N, C: chain ends. Non-standard residues stand in square brackets, D forms with d. Primed or numbered codes have the meaning given here. *: point of attachment. (4CF3PhAc)GA = (S)-2-amino-3-(N-(carboxymethyl)-2-(4-(trifluoromethyl)phenyl)acetamido)propanoic acid, O=C(Cc1ccc(C(F)(F)F)cc1)N(CC(=O)[*:3])C[C@H](N[*:1])C(=O)[*:2]; (MePipAc)GA = (S)-2-amino-3-(N-(carboxymethyl)-2-(4-methylpiperazin-1-yl)acetamido)propanoic acid, CN1CCN(CC(=O)N(CC(=O)[*:3])C[C@H](N[*:1])C(=O)[*:2])CC1; (4AcMePip)GA = (S)-2-amino-3-(N-(carboxymethyl)-1-methylpiperidine-4-carboxamido)propanoic acid, CN1CCC(C(=O)N(CC(=O)[*:3])C[C@H](N[*:1])C(=O)[*:2])CC1; (NdiMeButC)GAbu = (S)-2-amino-4-(N-(carboxymethyl)-4-(dimethylamino)butanamido)butanoic acid, CN(C)CCCC(=O)N(CC[C@H](N[*:1])C(=O)[*:2])CC(=O)[*:3]; PyrS2″ = (S)-3-amino-1-((pent-4-en-1-yloxy)carbonyl)pyrrolidine-3-carboxylic acid (stapling residue), C=CCCCOC(=O)N1CC[C@@](N[*:1])(C(=O)[*:2])C1; (NdiMeButC)GA = (S)-2-amino-3-(N-(carboxymethyl)-4-(dimethylamino)butanamido)propanoic acid, CN(C)CCCC(=O)N(CC(=O)[*:3])C[C@H](N[*:1])C(=O)[*:2]; B5(4) = 2,2-bis(4-pentenyl)glycine = 2-amino-2-(pent-4-en-1-yl)hept-6-enoic acid (stitching residue), C=CCCCC(CCCC=C)(N[*:1])C(=O)[*:2]; PyrS2 = (S)-3-amino-1-((pent-4-en-1-yloxy)carbonyl)pyrrolidine-3-carboxylic acid, C=CCCCOC(=O)N1CC[C@@](N[*:1])(C(=O)[*:2])C1; (Pic)GA = (S)-2-amino-3-(N-(carboxymethyl)picolinamido)propanoic acid, O=C(c1ccccn1)N(CC(=O)[*:3])C[C@H](N[*:1])C(=O)[*:2]; B5(22) = 2-amino-2-(pent-4-en-1-yl)hept-6-enoic acid (two alkene side chains), C=CCCCC(CCCC=C)(N[*:1])C(=O)[*:2]; MorphAsn = (S)-2-amino-4-morpholino-4-oxobutanoic acid, O=C(C[C@H](N[*:1])C(=O)[*:2])N1CCOCC1; B5(3) = 2,2-bis(4-pentenyl)glycine (stitching residue), C=CCCCC(CCCC=C)(N[*:1])C(=O)[*:2]; Me2NCBz = 4-((dimethylamino)methyl)benzoyl on Lys side chain, CN(C)Cc1ccc(C(=O)*)cc1; B5 = 2-amino-2-(pent-4-en-1-yl)hept-6-enoic acid, C=CCCCC(CCCC=C)(N[*:1])C(=O)[*:2]; MeAsn = N4-methyl-L-asparagine, CNC(=O)C[C@H](N[*:1])C(=O)[*:2]; Phe(3-COOH) = N[C@@H](Cc1cccc(C(=O)O)c1)C(=O)O; Phe(2-CF3) = N[C@@H](Cc1ccccc1C(F)(F)F)C(=O)O; Bta = N[C@@H](Cc1csc2ccccc12)C(=O)O; αAllylPro = C=CC[C@@]1(C(=O)O)CCCN1; tBuAla = CC(C)(C)C[C@H](N)C(=O)O; 3Thi = N[C@@H](Cc1ccsc1)C(=O)O; Cha = N[C@@H](CC1CCCCC1)C(=O)O; PyrS2(4) = not defined here; Ac5c = NC1(C(=O)O)CCCC1; Ac3c = NC1(C(=O)O)CC1; Aib = CC(C)(N)C(=O)O

With Ac-[αAllylPro]D[tBuAla][B5(3)]DDAAFN[PyrS2″][3Thi][Bta]QK(Me2NCBz)-NH2 (staple 1-4, 4-11) [I-910], in experiment [1], the “NanoBRET Abs IC50” value is 29.8 µM.

As for Ac-[αAllylPro]D[tBuAla][B5(4)]D[Phe(3-COOH)]QAFL[PyrS2″][Phe(2-CF3)][7FBztA]A-NH2 (staple 1-4, 4-11) [I-2489], the “NanoBRET Abs IC50” value in experiment [2] worked out at 7.4 µM.

Take Ac-[αAllylPro]D[tBuAla][B5(22)]D[(Pic)GA]AAFL[PyrS2][3Thi][Bta]Q-NH2 (staple 1-4, 4-11) [I-2237]: the “NanoBRET Abs IC50” value in experiment [3] came to 24.3 µM.

As to Ac-[αAllylPro]D[tBuAla][B5(22)]D[(MePipAc)GA]AAFL[PyrS2][3Thi][Bta]Q-NH2 (staple 1-4, 4-11) [I-2240], in experiment [3], the “NanoBRET Abs IC50” value is over 20 µM.

In the case of Ac-[αAllylPro]D[tBuAla][B5]NT[Aib]AF[MeAsn][PyrS2][3Thi][Bta]N-NH2 (staple 1-4, 4-11) [I-2497], the “NanoBRET Abs IC50” value in experiment [2] was over 20 µM.

As for Ac-[αAllylPro]D[tBuAla][B5(22)]D[(4AcMePip)GA]AAFL[PyrS2][3Thi][Bta]Q-NH2 (staple 1-4, 4-11) [I-2235], the “NanoBRET Abs IC50” value in experiment [3] is over 20 µM.

As to Ac-[αAllylPro]D[tBuAla][B5(3)]D[(PfBz)GA]AAFL[PyrS2(4)][3Thi][Bta]Q-NH2 (staple 1-4, 4-11; reading uncertain) [I-2242], the “NanoBRET Abs IC50” value in experiment [3] worked out at 21.4 µM.

On to Ac-[αAllylPro]D[tBuAla][B5(4)]D[Phe(3-COOH)]QAFL[PyrS2″][Phe(2-CF3)][7ClBztA]A-NH2 (staple 1-4, 4-11) [I-2487], for which the “NanoBRET Abs IC50” value in experiment [2] was 4.2 µM.

With Ac-[αAllylPro]N[Cha][B5]DQQAFL[PyrS2]F[Bta][MorphAsn]-NH2 (staple 1-4, 4-11) [I-2504], the “NanoBRET Abs IC50” value in experiment [2] was over 20 µM.

Regarding Ac-[αAllylPro]D[tBuAla][B5(3)]D[(NdiMeButC)GA]AAFL[PyrS2″][3Thi][Bta]Q-NH2 (staple 1-4, 4-11) [I-2233], in experiment [3], the “NanoBRET Abs IC50” value is over 20 µM.

Consider Ac-[αAllylPro]D[tBuAla][B5(4)]NT[Ac3c]AFN[PyrS2″][3Thi][Bta]Q-NH2 (staple 1-4, 4-11) [I-2492], for which the “NanoBRET Abs IC50” value in experiment [2] is over 20 µM.

On to Ac-[αAllylPro]D[tBuAla][B5(22)]D[(NdiMeButC)GAbu]AAFL[PyrS2][3Thi][Bta]Q-NH2 (staple 1-4, 4-11) [I-2243], for which the “NanoBRET Abs IC50” value in experiment [3] is 25.2 µM.

Consider Ac-[αAllylPro]D[tBuAla][B5(22)]D[(4CF3PhAc)GA]AAFL[PyrS2][3Thi][Bta]Q-NH2 (staple 1-4, 4-11) [I-2236], for which the “NanoBRET Abs IC50” value in experiment [3] came to 15.3 µM.

For Ac-[αAllylPro]D[tBuAla][B5(4)]NT[Ac5c]AFN[PyrS2″][3Thi][Bta]Q-NH2 (staple 1-4, 4-11) [I-2493], the “NanoBRET Abs IC50” value in experiment [2] is over 20 µM.
